Laboratory results from patent US20050054571A1, “Antimicrobial proteins from the SPO1 bacteriophage” (Rice University, priority 2003, published 2005).
“Also recorded” adds a separate entry of the source. Where two headings read alike, the source gives them in different places.

Assays:
Assay type in all cases: cell-based
E. coli = experiment: Effect of induced expression of cloned SPO1 genes on growth and viability of E. coli (liquid medium and colony formation); settings: cloned gene(s) expressed from IPTG-inducible promoter, * = lethality conclusion based on failure to clone, ** = data not conclusive
Source text: (§1) For analysis of antimicrobial activity we first cloned most of the 24 host-takeover genes (genes 37-60) singly or in multiple gene combinations into a B. subtilis/E. coli shuttle vector (pPW19) under control of an IPTG-inducible promoter (Wei and Stewart, 1993). […] These remaining genes are being cloned using expression vectors with more tightly regulated promoters, such as pJONEX4 (Sayers, 1996), pET101, or pX (Kim et al., 1996). The transformed E. coli and B. subtilis were used to determine the antimicrobial activity, if any, of the cloned genes. The effect of induction on bacterial growth and viability was measured both in liquid medium and by colony formation. Definitive establishment of lethality was shown by loss of the ability to form colonies even after removal from the inducing agent. Indication of probable lethality was based on total inability to form colonies under inducing conditions.

B. subtilis = experiment: Effect of induced expression of cloned SPO1 genes on growth and viability of B. subtilis (liquid medium and colony formation); settings: cloned gene(s) expressed from IPTG-inducible promoter, * = lethality conclusion based on failure to clone, ** = data not conclusive
Source text: as §1

bacteria = experiment: Toxicity or lethality of expression of cloned SPO1 genes, bacterium not given
Source text: as §1
In cells growing in liquid medium, expression of the cloned gene 44 was induced at time 0. At subsequent times, the number of cells remaining viable was measured by plating in the absence of inducer. More than 99% of the cells were killed within three hours.

## Gene 58: product of SPO1 host-takeover gene 58, SEQ ID NO: 22 (MTLAGYRVDSCNGCGKAYLVGESHDRKKCAECASK; SPO1 Bacteriophage)
E. coli
  Lethality, E. coli: Mildly toxic
B. subtilis
  Lethality, B. subtilis: No effect

## Gene 37: product of SPO1 host-takeover gene 37, SEQ ID NO: 1 (MSDVIIPFLTSAVTAFIVAYLLDRWYIKRRR; SPO1 Bacteriophage)
E. coli
  Lethality, E. coli: Lethal *
bacteria
  toxicity or lethality of expression: lethal

B1: Gene 47: product of SPO1 host-takeover gene 47, SEQ ID NO: 11 (protein)
chain: MDWTKMTFMGTVDEVKEIWNGLEEAGRLYAVWLSDDHVYGIVDVNEEGLFCLGWVSDISPESLQNMLGGGAELFESYEDVLSEHGGSIAIRVEV
modifications: SPO1 Bacteriophage
E. coli; listed as 47
  Lethality, E. coli: little or no effect; also recorded: No effect
B. subtilis; listed as 47
  Lethality, B. subtilis: little or no effect; also recorded: No effect

B2: Gene 48: product of SPO1 host-takeover gene 48, SEQ ID NO: 12 (protein)
chain: MPYSKITVPVLVGEGLTEWDVIDVMRETHPPTVEDQYHYHTFDSMQNRTIFVLENPLYPDVDKIPEKVLGIAVDALEDMLDNVPVEDLPVTEEQGNVKRFTTKLASIVFDVFLIIPDFVSVTAKEE
modifications: SPO1 Bacteriophage
E. coli; listed as 48
  Lethality, E. coli: strongly toxic but not lethal; also recorded: Strongly Toxic
B. subtilis; listed as 48
  Lethality, B. subtilis: strongly toxic but not lethal; also recorded: Strongly Toxic

B3: Gene 43: product of SPO1 host-takeover gene 43, SEQ ID NO: 7 (protein)
chain: MIQLSERQQDLLQVAEKYEQCHIEFYTAQSRLFGTEIMGEVVKTSLGTLKIAHPEEDLFEVALAYLASKKDILTAQERKDVLFYIQNNLC
modifications: SPO1 Bacteriophage
E. coli; listed as 43
  Lethality, E. coli: too inconsistent to permit any conclusion; also recorded: Indeterminate
B. subtilis; listed as 43
  Lethality, B. subtilis: too inconsistent to permit any conclusion; also recorded: Indeterminate

B4: Gene 41: product of SPO1 host-takeover gene 41, SEQ ID NO: 5 (protein)
chain: MEKLPNTVVKVHGEGMESKLFPRKLHKDTNSILREDLVSACQEHIEALVEGMIAHGDGRKVAELDTSTQYYWHLKLVEYTPIPGRTQHYVDLVDGTNPDVCYFSLCDCSGDNITDRRWSNMVKRLQNPEEDIAKTLRCYFRQDAGMPSWIEYPQ
modifications: SPO1 Bacteriophage
E. coli; listed as 41
  Lethality, E. coli: only a mild effect; also recorded: Mildly Toxic
B. subtilis; listed as 41
  Lethality, B. subtilis: lethal; also recorded: Lethal *

B5: Gene 52: product of SPO1 host-takeover gene 52, SEQ ID NO: 16 (protein)
chain: MTHFISIATYIYALVSAGFIGGWHDEESWIKDTEYEHGGYHMIIDTPAVVNYSLEYGNYQWIFQKYMKEGKVTVERFYRNSLDIPKEILTDEALAFIKDWDENANEYELHAGEGVLYFKYEGEEKGYVIPMAYAGEIMFVPDEDAEKALEIINSQKKY
modifications: SPO1 Bacteriophage
E. coli; listed as 52
  Lethality, E. coli: Lethal

B6: Gene 57: product of SPO1 host-takeover gene 57, SEQ ID NO: 21 (protein)
chain: MTLFIAGVTLEEVREATVSALFVKLEQEKKALYLGAGSEDSLNLCKSTLDKVQEDYPLDDMEKDYLRDLLQFWLSRLFLGDGFEGEIPDSSEDLRRTATTAFTYTAAIRHYCM
modifications: SPO1 Bacteriophage
E. coli
  Lethality, E. coli: Mildly toxic
B. subtilis
  Lethality, B. subtilis: No effect

B7: Gene 38: product of SPO1 host-takeover gene 38, SEQ ID NO: 2 (protein)
chain: MSVQIKHGNKTFVVDPSGDVKEGSYVLYLYEYRLGEVDVGRVSEVANDGRLYLDGPGVIVTLDQPFILLKEVVEEEEDEDDRIDAEFHNDPLLRKLENTTEKLTPEETQLAQWTTMTRVFSHDLKKGIPYAIKHKNSGNILYGLYSGLLNPVTALFRHLNEESKISIEQLKSGLIEIYEVVEDEEESIWN
modifications: SPO1 Bacteriophage
E. coli
  Lethality, E. coli: Highly toxic
B. subtilis
  Lethality, B. subtilis: No effect **

B8: Gene 40: product of SPO1 host-takeover gene 40, SEQ ID NO: 4 (protein)
chain: MHIYTYWGLKYVPSNSTMVAKEGDLILLGNEVHKVVKVLHRFRNITDLQITNWKGTETRYNLHVTEYKVLVPYDTHKEENEAMSDSLITHNGKDYVLCKIPARVGDLIRTEDKRVWEVLQKSKDGLVLYNEEKGEQRSAVYSEIGPYHVLVPRDTDTHTPTREELAAVIMNKAFTRTETQDSQEDTGTHKGLGLTGTDLYHSLRDLDAKVQSGYYTATENEEDVKSEIEATKKHMKAVKESGKTVNDYRKEENTKRCKLKALTNKFNRLFLKSVIDTDSLQVGKAYLIGGRDMKNVHGLYTGTTFDQQHANFLIVETDRMHRTLTVSAEQLFAEERHIVDIEKRVEQTED
modifications: SPO1 Bacteriophage
E. coli; listed as 40
  Lethality, E. coli: only mildly toxic
B. subtilis; listed as 40
  Lethality, B. subtilis: only mildly toxic; also recorded: Inconsistent

B9: Gene 39: product of SPO1 host-takeover gene 39, SEQ ID NO: 3 (protein)
chain: MELNLDIYVDYKDKRYKAEGYYGPSVGDLVLIFMDMELEGATVQEVARIEGSEIHLRTPNGNEPSYRYMGQYLILKPYGSSDPRGDILVHEDVQYVRVDAQAMPGDLIEALEPNKLPFSGKRFKYRPAVLEVEYVLTKDEQVLQLENGKSYSGAYRVLIPRMGVLPPKTHIYTTHKHVFMEDVFVLGNSYELSSPNDVEMTPIHAVFTGFSKNRDEAIFVNPYYNDDGVTGTMITVSDLLTGKWDITPLVPKKGV
modifications: SPO1 Bacteriophage
E. coli
  Lethality, E. coli: Lethal
bacteria; listed as 39
  toxicity or lethality of expression: lethal effect

B10: Gene 46: product of SPO1 host-takeover gene 46, SEQ ID NO: 10 (protein)
chain: MMTEDQKFKYLTKIEELEAGCFSDWTKEDITGDLKYLKKGIIEESIELIRAVNGLTYSEELHDFTQEIIEELDISPL
modifications: SPO1 Bacteriophage
E. coli
  Lethality, E. coli: Lethal
B. subtilis
  Lethality, B. subtilis: Mildly Toxic
bacteria
  toxicity or lethality of expression: lethal but with diminished efficiency

B11: Gene 42: product of SPO1 host-takeover gene 42, SEQ ID NO: 6 (protein)
chain: MRKFVTTLTASPRNKKVGNHRLEISPFVSLRRYYYFNTAICIENPVTREFAIDDSYGSLSTNQNCAQYRQYFSLGGYKEVSLEEIHAV
modifications: SPO1 Bacteriophage
E. coli; listed as 42
  Lethality, E. coli: no toxic effect
B. subtilis; listed as 42
  Lethality, B. subtilis: no toxic effect
